From patent US20190112392A1 (Ablynx, published 2019)
Numbering of substitutions follows the chain as printed.

Legend:
[1] = biological target: T1, EGFR on cells (UniProt P00533 25-1210, limits assumed); experiment: flow cytometry, LoVo cells; set-up: Top: unit not given here
T1 construct: whole, on cells; also called HER14 cells (NIH3T3 transfected with EGFR); EGFR on LS174T and LoVo cells

[2] = biological target: T1, EGFR on cells; experiment: flow cytometry, LS174T cells; set-up: Top: unit not given here
[3] = biological target: T2, hEGFR (Sino Biological, #10001-H08H) (human, UniProt P00533 25-645); experiment: SPR (Biacore T100), immobilized hEGFR, 1:1 model
T2 construct: extracellular domain; Bought protein; also called hEGFR ECD; human EGFR protein
Protocol: (§1) Thereto, hEGFR (Sino Biological, #10001-H08H) was immobilized onto a CM5 chip via amine coupling, using EDC and NHS chemistry. Purified Nanobodies were injected for 2 minutes at different concentrations (between 1.37 and 3000 nM) and allowed to dissociate for 15 min at a flow rate of 45 μl/min. In between sample injections, the surfaces were regenerated with 50 mM NaOH. HBS-EP+(Hepes buffer pH7.4) was used as running buffer.
(§2) The kinetic constants were calculated from the sensorgrams using the BIAEvaluation software (1:1 interaction). The affinity constants (KD) were calculated from resulting association and dissociation rate constants kon and koff, and are shown in Table C-29.

[4] = biological target: T1, EGFR on cells; experiment: flow cytometry, HER14 cells
[5] = biological target: T3, T cell receptor alpha/beta on purified primary human T cells (human, UniProt P01848 1-140; P01850 1-176); experiment: flow cytometry on primary human T cells, MeanFI (PE)
T3 construct: whole, on cells; also called human primary T cells
T3 TCR alpha (looked up): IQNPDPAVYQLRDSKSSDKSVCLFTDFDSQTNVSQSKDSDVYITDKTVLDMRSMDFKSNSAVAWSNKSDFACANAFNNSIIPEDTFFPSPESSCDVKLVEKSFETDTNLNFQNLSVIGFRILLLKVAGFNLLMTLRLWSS
T3 TCR beta (looked up): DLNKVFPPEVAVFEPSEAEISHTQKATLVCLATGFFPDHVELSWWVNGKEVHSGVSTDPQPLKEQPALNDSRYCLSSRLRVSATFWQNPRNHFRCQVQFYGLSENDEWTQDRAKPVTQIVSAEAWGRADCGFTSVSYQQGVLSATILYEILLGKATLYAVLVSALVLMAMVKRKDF

[6] = biological target: T4, CEACAM5 on cells (UniProt P06731 35-685); experiment: flow cytometry, LoVo cells; set-up: Top: unit not given here
T4 construct: whole, on cells; also called CEACAM5 on LS174T and LoVo cells
T4 sequence (looked up): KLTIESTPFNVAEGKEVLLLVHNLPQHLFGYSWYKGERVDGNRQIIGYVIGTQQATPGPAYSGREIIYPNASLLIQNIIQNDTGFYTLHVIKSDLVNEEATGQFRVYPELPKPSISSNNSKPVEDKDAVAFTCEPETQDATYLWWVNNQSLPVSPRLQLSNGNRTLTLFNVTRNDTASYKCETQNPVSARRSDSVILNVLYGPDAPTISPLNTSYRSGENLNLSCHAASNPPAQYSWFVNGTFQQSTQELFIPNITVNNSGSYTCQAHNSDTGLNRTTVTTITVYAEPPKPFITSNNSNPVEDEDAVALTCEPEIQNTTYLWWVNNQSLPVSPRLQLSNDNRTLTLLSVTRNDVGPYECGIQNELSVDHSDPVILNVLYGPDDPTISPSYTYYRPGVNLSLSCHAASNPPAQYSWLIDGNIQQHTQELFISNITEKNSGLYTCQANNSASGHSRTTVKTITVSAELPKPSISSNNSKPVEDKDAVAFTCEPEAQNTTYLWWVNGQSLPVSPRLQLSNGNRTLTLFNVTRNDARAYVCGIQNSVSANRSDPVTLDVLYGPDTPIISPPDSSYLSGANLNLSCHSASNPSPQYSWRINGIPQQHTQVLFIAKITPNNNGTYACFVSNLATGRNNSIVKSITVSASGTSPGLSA

[7] = biological target: T4, CEACAM5 on cells; experiment: flow cytometry, LS174T cells; set-up: Top: unit not given here
[8] = biological target: T5, hCEACAM-5 (R&D Systems, #4128-CM) (human, UniProt P06731 35-685); experiment: SPR (Biacore T100), immobilized hCEACAM-5, 1:1 model
T5 construct: Bought protein; also called human CEACAM5 protein
T5 sequence (looked up): T4 sequence (looked up)
Protocol: as §1, with “hCEACAM-5 (R&D Systems, #4128-CM)” for “hEGFR (Sino Biological, #10001-H08H)”, “0.31” for “1.37”, “2000” for “3000”, “10” for “50”, “Glycine pH 1.5.” for “NaOH.”
as §2

[9] = biological target: T1, EGFR on cells; experiment: flow cytometry on HER14 cells, MeanFI (PE)
[10] = biological target: T6, human CD3 expressed on HEK293H cells (human, UniProt P04234 22-171; P09693 23-182; P07766 23-207; P20963 22-164); experiment: flow cytometry, HEK293H human CD3 cells
T6 construct: also called HEK293H human CD3; HEK293H CD3
Protocol: (§3) Binding of purified monovalent anti-TCR Nanobodies to human TCR(2IAN)/CD3 expressed on HEK293H cells was evaluated and compared with the binding to HEK293H cells transfected with human CD3 in flow cytometry, as outlined in Example 5. Dilution series of anti-TCR Nanobodies starting from 1 μM were applied to the cells. The parental HEK293H cell line was included as TCR/CD3 negative cell line.
Nanobodies clearly bound to human TCR(2IAN)/CD3 expressed on HEK293H but not to the HEK293H cells transfected with human CD3 only, nor to the HEK293H parental cell line. The EC50 values obtained from the dose response curve are depicted in Table C-2.

[11] = biological target: T7, soluble recombinant cynomolgus TCR alpha/beta-zipper protein (cynomolgus/rhesus monkey); experiment: BLI (Octet RED384), immobilized cynomolgus TCR-zipper
T7 construct: Made in house in CHOK1SV cells; extracellular domains fused to a zipper protein; also called cynoTCR-zipper protein; not shown: zipper protein (O'Shea et al. 1993)
T7 V domain 1: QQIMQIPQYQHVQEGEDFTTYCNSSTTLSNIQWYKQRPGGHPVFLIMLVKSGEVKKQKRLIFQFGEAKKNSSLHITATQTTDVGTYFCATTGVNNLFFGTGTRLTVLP
T7 V domain 2: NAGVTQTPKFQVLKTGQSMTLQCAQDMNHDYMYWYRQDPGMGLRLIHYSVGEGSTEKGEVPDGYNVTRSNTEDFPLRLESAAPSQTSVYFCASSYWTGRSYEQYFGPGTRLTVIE
Protocol: Binding affinities were measured using Bio-Layer Interferometry (BLI) on an Octet RED384 instrument (Pall ForteBio Corp.). Recombinant human soluble TCR(2XN9)-zipper protein was covalently immobilized on amine-reactive sensors (ForteBio) via NHS/EDC coupling chemistry. For kinetic analysis, sensors were first dipped into running buffer (10 mM Hepes, 150 mM NaCl, 0.05% p20, pH7.4 from GE Healthcare Life Sciences) to determine baseline setting. […] Affinity constants (KD) were calculated applying a 1:1 interaction model using the ForteBio Data Analysis software.
Binding affinities of the monovalent anti-TCR Nanobodies were measured using Bio-Layer Interferometry (BLI) on an Octet RED384 instrument (Pall ForteBio Corp.) essentially as described in Example 7.1 using cynomolgus TCR α/β zipper.

[12] = biological target: T7, soluble recombinant cynomolgus TCR …; experiment: ELISA, coated soluble cynomolgus TCR-zipper
Protocol: Quality of the TCR α/β zipper proteins was assessed in an ELISA binding assay. Maxisorp 96-well ELISA plates (Nunc) were coated with 2 μg/mL soluble recombinant human TCR α/β (2XN9)-zipper protein or soluble recombinant cynomolgus TCR α/β-zipper protein. After an overnight incubation, plates were washed and blocked with PBS+1% casein for 1 h at room temperature. Next, plates were incubated with serial dilutions of either a functional flag tagged Nanobody or the functional mouse IgG anti-non-human primate/Rat TCRα/β antibody, clone R73 (eBioscience 16-5960) for 1 h at room temperature while shaking, washed again and incubated with mouse anti-flag-HRP (Sigma, #A8592) respectively rabbit anti-mouse-HRP (Dako, # P0260). After 1 h, TMB One Solution (Promega #G7431) was added. The reaction was stopped with 2M H₂SO₄ and the dose dependent binding was determined by measuring the OD at 450 nm using the Tecan sunrise 4 (FIG. 2).
Binding of purified monovalent anti-TCR Nanobodies to soluble recombinant cynomolgus TCR c/3 protein was evaluated in ELISA (as described in Example 1.2) using 2 μg/ml directly coated recombinant soluble cynomolgus TCR-α/β zipper protein.

[13] = biological target: T7, soluble recombinant cynomolgus TCR …; experiment: BLI (Octet RED384), immobilized cynomolgus TCR-zipper
[14] = biological target: T6, human CD3 expressed on HEK293H cells; experiment: flow cytometry on HEK293H human CD3 cells, MCF
Protocol: as §3

[15] = biological target: T3, T cell receptor alpha/beta on purified …; experiment: flow cytometry, purified primary human T cells
Protocol: Periplasmic extracts were screened for cell expressed TCR/CD3 binding using human TCR/CD3 transfected CHO-K1 or HEK293H cells and the respective CHO-K1 or HEK293H reference cell line in a mixed cell line setup. To this end, a large batch of the reference cell lines were labelled with 8 μM PKH26 and frozen. 5×10⁴ PKH labelled reference cells were mixed with 5×10⁴ target cells and incubated with periplasmic extracts for 30 min at 4′C, and washed 3 times. […] Samples were washed, resuspended in FACS Buffer (D-PBS from Gibco, with 10% FBS from Sigma and 0.05% sodium azide from Merck) and then analysed via a BD FACSArray. […] In this gate, 20,000 cells were counted during acquisition. Based on PKH26-SSC distribution, the PKH labelled parental population and the human TCR/CD3 unlabelled target population was selected. For these 2 populations the mean APC value was calculated.
Binding of purified monovalent anti-TCR Nanobodies to human TCR(2XN9)/CD3 expressed on CHO-K1 cells and to purified primary human T cells was evaluated in flow cytometry as outlined in Example 4.1.

B1: EGFR038G07 (VHH)
VHH: EVQLVESGGGLVQAGGSLRLSCAASGRTFSSYVMGWFRQATGKEREFVATIAWDSGSTYYADSVKGRFTISRDNAKNTVHLQMNSLKPEDTAVYYCAASYNVYYNNYYYPISRDEYDYWGQGTLVTVSS
notes: Monovalent Nanobody; also called monovalent anti-EGFR Nanobody; EGFR monovalent Nanobody
For B1, the EC50 [1] was 0.54 nM, the Top [1] was 52300 and the EC50 [2] was 0.93 nM. The Top [2] was 32200, the Kd [3] was 0.763 nM and the koff [3] was 0.000426 s⁻¹. It also gave a kon [3] of 558000 M⁻¹ s⁻¹, an EC50 [4] of 1.8 nM and a Top [4] of 166000. B1: no binding (tested: 5e-7 M) [5].

B2: NbCEA5 (VHH)
VHH: EVQLVESGGGSVQAGGSLRLSCAASGDTYGSYWMGWFRQAPGKEREGVAAINRGGGYTVYADSVKGRFTISRDTAKNTVYLQMNSLRPDDTADYYCAASGVLGGLHEDWFNYWGQGTLVTVSS
notes: Monovalent Nanobody; also called CEA#1; monovalent anti-CEA Nanobody
Work on B2 yielded an EC50 [6] of 1.2 nM, a Top [6] of 11200 and an EC50 [7] of 0.59 nM. For the same binder, the Top [7] was 43000, the Kd [8] was 0.51 nM and the koff [8] was 0.00051 s⁻¹. For the same binder, the kon [8] was 990000 M⁻¹ s⁻¹, the binding result [9] was “no binding (tested: 5e-7 M)” and the binding result [5] was “no binding (tested: 5e-7 M)”.

B3: T0170055A02 (VHH)
VHH: EVQLVESGGGLVQPGGSLRLSCAASGDVHKINILGWYRQAPAKEREMVAHITIGDATDYADSAKGRFTISRDEAKNMVYLQMNSLKPEDTAVYFCRAYSRIYPYNYWGQGTLVTVSS
notes: Monovalent anti-TCR Nanobody, cluster A; expressed in E. coli as triple Flag, His6-tagged protein; also called T0170PMP055A02; T01700055A02; not shown: C-terminal triple Flag-His6 tag of the E. coli-made monovalent Nanobody
For B3, the “MCF at 1 µM” value [10] was 1190 MCF, the Kd [11] was 210 nM and the koff [11] was 0.024 s⁻¹. The kon [11] was 110000 M⁻¹ s⁻¹, the EC50 [12] was 160 nM and the “fold lower affinity than for soluble recombinant human TCR α/β zipper” value [13] was 10 fold. The binding result [14] was “no binding (tested: 1e-6 M)” and the EC50 [15] was 91 nM.

B4: T0170056G05 (VHH)
VHH: B3 VHH with A23V, I33F, A42G, M47K, T52S, A56Q, A74S, Y98F, N105D
notes: Monovalent anti-TCR Nanobody, cluster A; expressed in E. coli as triple Flag, His6-tagged protein; also called T0170PMP056G05; T01700056G05; not shown: C-terminal triple Flag-His6 tag of the E. coli-made monovalent Nanobody
B4 was tested, and the “MCF at 1 µM” value [10] was 352 MCF, the Kd [11] was 150 nM and the koff [11] was 0.016 s⁻¹. The kon [11] was 110000 M⁻¹ s⁻¹, the EC50 [12] was 77 nM and the “fold lower affinity than for soluble recombinant human TCR α/β zipper” value [13] was 10 fold. The binding result [14] was “no binding (tested: 1e-6 M)”, the EC50 [15] was 91 nM and the binding result [9] was “no binding (tested: 5e-7 M)”.
